Experimental data: US20140087995A1 (published 2014)
Numbered stars: 1 amine (or outer) side, 2 acyl side, 3 side chain; on linkers, the order of the positions; unused ones are H or OH. Bridge positions count the residues as written; N and C are the ends. Side chains are listed from the residue outwards. Ends that are not written are not given here. * marks the point of attachment. C20 diacid = O=C(O)CCCCCCCCCCCCCCCCCCC(=O)*; γGlu = O=C(O)[C@H](CCC(=O)[*:2])N[*:1]; AEEA = NCCOCCOCC(=O)O

T1: human amylin 3(a) receptor (human calcitonin receptor co-expressed with RAMP-3) (human, UniProt P30988 25-474; O60896 24-148, limits assumed)
T1 sequence (looked up) 1: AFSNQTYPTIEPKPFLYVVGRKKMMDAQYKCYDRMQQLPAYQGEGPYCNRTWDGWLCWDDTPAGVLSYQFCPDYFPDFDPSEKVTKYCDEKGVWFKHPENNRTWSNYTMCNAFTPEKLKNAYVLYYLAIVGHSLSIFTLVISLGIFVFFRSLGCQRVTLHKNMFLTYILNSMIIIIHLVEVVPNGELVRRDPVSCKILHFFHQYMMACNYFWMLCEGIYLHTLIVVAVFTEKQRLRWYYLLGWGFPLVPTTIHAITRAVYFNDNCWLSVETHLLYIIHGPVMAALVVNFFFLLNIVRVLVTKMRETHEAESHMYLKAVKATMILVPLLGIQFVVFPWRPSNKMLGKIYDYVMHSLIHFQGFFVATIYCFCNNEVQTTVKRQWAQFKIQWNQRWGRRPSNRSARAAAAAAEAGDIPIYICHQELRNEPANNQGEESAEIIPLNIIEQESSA
T1 sequence (looked up) 2: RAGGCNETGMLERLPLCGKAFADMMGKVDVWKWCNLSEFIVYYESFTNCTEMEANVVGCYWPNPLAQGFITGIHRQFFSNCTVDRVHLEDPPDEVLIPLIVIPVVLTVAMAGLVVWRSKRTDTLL

B1: N^ε1-[2-[2-[2-[[(4S)-4-carboxy-4-(19-carboxynonadecanoylamino)butanoyl]amino]ethoxy]ethoxy]acetyl]-[Thr14,Arg17,Pro21,Pro27,Pro31]-h-amylin (peptide)
peptide: K([AEEA-γGlu-C20 diacid])CNTATCATQRLATFLRHSSPNFGAIPSSTPVGSNTY-NH2
modifications: disulfide 2-7; N-terminus assumed
SMILES: CC[C@H](C)[C@H](NC(=O)[C@H](C)NC(=O)CNC(=O)[C@H](Cc1ccccc1)NC(=O)[C@H](CC(N)=O)NC(=O)[C@@H]1CCCN1C(=O)[C@H](CO)NC(=O)[C@H](CO)NC(=O)[C@H](Cc1c[nH]cn1)NC(=O)[C@H](CCCNC(=N)N)NC(=O)[C@H](CC(C)C)NC(=O)[C@H](Cc1ccccc1)NC(=O)[C@@H](NC(=O)[C@H](C)NC(=O)[C@H](CC(C)C)NC(=O)[C@H](CCCNC(=N)N)NC(=O)[C@H](CCC(N)=O)NC(=O)[C@@H](NC(=O)[C@H](C)NC(=O)[C@@H]1CSSC[C@H](NC(=O)[C@@H](N)CCCCNC(=O)COCCOCCNC(=O)CC[C@H](NC(=O)CCCCCCCCCCCCCCCCCCC(=O)O)C(=O)O)C(=O)N[C@@H](CC(N)=O)C(=O)N[C@@H]([C@@H](C)O)C(=O)N[C@@H](C)C(=O)N[C@@H]([C@@H](C)O)C(=O)N1)[C@@H](C)O)[C@@H](C)O)C(=O)N1CCC[C@H]1C(=O)N[C@@H](CO)C(=O)N[C@@H](CO)C(=O)N[C@H](C(=O)N1CCC[C@H]1C(=O)N[C@H](C(=O)NCC(=O)N[C@@H](CO)C(=O)N[C@@H](CC(N)=O)C(=O)N[C@H](C(=O)N[C@@H](Cc1ccc(O)cc1)C(N)=O)[C@@H](C)O)C(C)C)[C@@H](C)O
notes: also called compound 75
B2: N^ε1-[(4S)-4-carboxy-4-(19-carboxynonadecanoylamino)butanoyl]-[Arg14,Arg17,Pro21,Pro27,Pro31]-h-amylin (peptide)
peptide: K([γGlu-C20 diacid])CNTATCATQRLARFLRHSSPNFGAIPSSTPVGSNTY-NH2
modifications: disulfide 2-7; N-terminus assumed
SMILES: CC[C@H](C)[C@H](NC(=O)[C@H](C)NC(=O)CNC(=O)[C@H](Cc1ccccc1)NC(=O)[C@H](CC(N)=O)NC(=O)[C@@H]1CCCN1C(=O)[C@H](CO)NC(=O)[C@H](CO)NC(=O)[C@H](Cc1c[nH]cn1)NC(=O)[C@H](CCCNC(=N)N)NC(=O)[C@H](CC(C)C)NC(=O)[C@H](Cc1ccccc1)NC(=O)[C@H](CCCNC(=N)N)NC(=O)[C@H](C)NC(=O)[C@H](CC(C)C)NC(=O)[C@H](CCCNC(=N)N)NC(=O)[C@H](CCC(N)=O)NC(=O)[C@@H](NC(=O)[C@H](C)NC(=O)[C@@H]1CSSC[C@H](NC(=O)[C@@H](N)CCCCNC(=O)CC[C@H](NC(=O)CCCCCCCCCCCCCCCCCCC(=O)O)C(=O)O)C(=O)N[C@@H](CC(N)=O)C(=O)N[C@@H]([C@@H](C)O)C(=O)N[C@@H](C)C(=O)N[C@@H]([C@@H](C)O)C(=O)N1)[C@@H](C)O)C(=O)N1CCC[C@H]1C(=O)N[C@@H](CO)C(=O)N[C@@H](CO)C(=O)N[C@H](C(=O)N1CCC[C@H]1C(=O)N[C@H](C(=O)NCC(=O)N[C@@H](CO)C(=O)N[C@@H](CC(N)=O)C(=O)N[C@H](C(=O)N[C@@H](Cc1ccc(O)cc1)C(N)=O)[C@@H](C)O)C(C)C)[C@@H](C)O
notes: also called compound 63
B3: N^ε1-[(4S)-4-carboxy-4-(19-carboxynonadecanoylamino)butanoyl]-[Arg14,Arg17,Pro21,Pro27,Pro34]-h-amylin (peptide)
peptide: K([γGlu-C20 diacid])CNTATCATQRLARFLRHSSPNFGAIPSSTNVGPNTY-NH2
modifications: disulfide 2-7; N-terminus assumed
SMILES: CC[C@H](C)[C@H](NC(=O)[C@H](C)NC(=O)CNC(=O)[C@H](Cc1ccccc1)NC(=O)[C@H](CC(N)=O)NC(=O)[C@@H]1CCCN1C(=O)[C@H](CO)NC(=O)[C@H](CO)NC(=O)[C@H](Cc1c[nH]cn1)NC(=O)[C@H](CCCNC(=N)N)NC(=O)[C@H](CC(C)C)NC(=O)[C@H](Cc1ccccc1)NC(=O)[C@H](CCCNC(=N)N)NC(=O)[C@H](C)NC(=O)[C@H](CC(C)C)NC(=O)[C@H](CCCNC(=N)N)NC(=O)[C@H](CCC(N)=O)NC(=O)[C@@H](NC(=O)[C@H](C)NC(=O)[C@@H]1CSSC[C@H](NC(=O)[C@@H](N)CCCCNC(=O)CC[C@H](NC(=O)CCCCCCCCCCCCCCCCCCC(=O)O)C(=O)O)C(=O)N[C@@H](CC(N)=O)C(=O)N[C@@H]([C@@H](C)O)C(=O)N[C@@H](C)C(=O)N[C@@H]([C@@H](C)O)C(=O)N1)[C@@H](C)O)C(=O)N1CCC[C@H]1C(=O)N[C@@H](CO)C(=O)N[C@@H](CO)C(=O)N[C@H](C(=O)N[C@@H](CC(N)=O)C(=O)N[C@H](C(=O)NCC(=O)N1CCC[C@H]1C(=O)N[C@@H](CC(N)=O)C(=O)N[C@H](C(=O)N[C@@H](Cc1ccc(O)cc1)C(N)=O)[C@@H](C)O)C(C)C)[C@@H](C)O
notes: also called compound 65
B4: N^ε1-[(4S)-4-carboxy-4-(19-carboxynonadecanoylamino)butanoyl]-[Arg14,Arg17,Pro21,Pro27]-h-amylin (peptide)
peptide: K([γGlu-C20 diacid])CNTATCATQRLARFLRHSSPNFGAIPSSTNVGSNTY-NH2
modifications: disulfide 2-7; N-terminus assumed
SMILES: CC[C@H](C)[C@H](NC(=O)[C@H](C)NC(=O)CNC(=O)[C@H](Cc1ccccc1)NC(=O)[C@H](CC(N)=O)NC(=O)[C@@H]1CCCN1C(=O)[C@H](CO)NC(=O)[C@H](CO)NC(=O)[C@H](Cc1c[nH]cn1)NC(=O)[C@H](CCCNC(=N)N)NC(=O)[C@H](CC(C)C)NC(=O)[C@H](Cc1ccccc1)NC(=O)[C@H](CCCNC(=N)N)NC(=O)[C@H](C)NC(=O)[C@H](CC(C)C)NC(=O)[C@H](CCCNC(=N)N)NC(=O)[C@H](CCC(N)=O)NC(=O)[C@@H](NC(=O)[C@H](C)NC(=O)[C@@H]1CSSC[C@H](NC(=O)[C@@H](N)CCCCNC(=O)CC[C@H](NC(=O)CCCCCCCCCCCCCCCCCCC(=O)O)C(=O)O)C(=O)N[C@@H](CC(N)=O)C(=O)N[C@@H]([C@@H](C)O)C(=O)N[C@@H](C)C(=O)N[C@@H]([C@@H](C)O)C(=O)N1)[C@@H](C)O)C(=O)N1CCC[C@H]1C(=O)N[C@@H](CO)C(=O)N[C@@H](CO)C(=O)N[C@H](C(=O)N[C@@H](CC(N)=O)C(=O)N[C@H](C(=O)NCC(=O)N[C@@H](CO)C(=O)N[C@@H](CC(N)=O)C(=O)N[C@H](C(=O)N[C@@H](Cc1ccc(O)cc1)C(N)=O)[C@@H](C)O)C(C)C)[C@@H](C)O
notes: also called compound 83
B5: N^ε1-[(4S)-4-carboxy-4-(19-carboxynonadecanoylamino)butanoyl]-[Arg17,Pro21,Pro27,Arg34]-h-amylin (peptide)
peptide: K([γGlu-C20 diacid])CNTATCATQRLANFLRHSSPNFGAIPSSTNVGRNTY-NH2
modifications: disulfide 2-7; N-terminus assumed
SMILES: CC[C@H](C)[C@H](NC(=O)[C@H](C)NC(=O)CNC(=O)[C@H](Cc1ccccc1)NC(=O)[C@H](CC(N)=O)NC(=O)[C@@H]1CCCN1C(=O)[C@H](CO)NC(=O)[C@H](CO)NC(=O)[C@H](Cc1c[nH]cn1)NC(=O)[C@H](CCCNC(=N)N)NC(=O)[C@H](CC(C)C)NC(=O)[C@H](Cc1ccccc1)NC(=O)[C@H](CC(N)=O)NC(=O)[C@H](C)NC(=O)[C@H](CC(C)C)NC(=O)[C@H](CCCNC(=N)N)NC(=O)[C@H](CCC(N)=O)NC(=O)[C@@H](NC(=O)[C@H](C)NC(=O)[C@@H]1CSSC[C@H](NC(=O)[C@@H](N)CCCCNC(=O)CC[C@H](NC(=O)CCCCCCCCCCCCCCCCCCC(=O)O)C(=O)O)C(=O)N[C@@H](CC(N)=O)C(=O)N[C@@H]([C@@H](C)O)C(=O)N[C@@H](C)C(=O)N[C@@H]([C@@H](C)O)C(=O)N1)[C@@H](C)O)C(=O)N1CCC[C@H]1C(=O)N[C@@H](CO)C(=O)N[C@@H](CO)C(=O)N[C@H](C(=O)N[C@@H](CC(N)=O)C(=O)N[C@H](C(=O)NCC(=O)N[C@@H](CCCNC(=N)N)C(=O)N[C@@H](CC(N)=O)C(=O)N[C@H](C(=O)N[C@@H](Cc1ccc(O)cc1)C(N)=O)[C@@H](C)O)C(C)C)[C@@H](C)O
notes: also called compound 79
B6: N^ε1-[(4S)-4-carboxy-4-(19-carboxynonadecanoylamino)butanoyl]-[Arg17,Pro21,Pro27,Glu35]-h-amylin (peptide)
peptide: K([γGlu-C20 diacid])CNTATCATQRLANFLRHSSPNFGAIPSSTNVGSETY-NH2
modifications: disulfide 2-7; N-terminus assumed
SMILES: CC[C@H](C)[C@H](NC(=O)[C@H](C)NC(=O)CNC(=O)[C@H](Cc1ccccc1)NC(=O)[C@H](CC(N)=O)NC(=O)[C@@H]1CCCN1C(=O)[C@H](CO)NC(=O)[C@H](CO)NC(=O)[C@H](Cc1c[nH]cn1)NC(=O)[C@H](CCCNC(=N)N)NC(=O)[C@H](CC(C)C)NC(=O)[C@H](Cc1ccccc1)NC(=O)[C@H](CC(N)=O)NC(=O)[C@H](C)NC(=O)[C@H](CC(C)C)NC(=O)[C@H](CCCNC(=N)N)NC(=O)[C@H](CCC(N)=O)NC(=O)[C@@H](NC(=O)[C@H](C)NC(=O)[C@@H]1CSSC[C@H](NC(=O)[C@@H](N)CCCCNC(=O)CC[C@H](NC(=O)CCCCCCCCCCCCCCCCCCC(=O)O)C(=O)O)C(=O)N[C@@H](CC(N)=O)C(=O)N[C@@H]([C@@H](C)O)C(=O)N[C@@H](C)C(=O)N[C@@H]([C@@H](C)O)C(=O)N1)[C@@H](C)O)C(=O)N1CCC[C@H]1C(=O)N[C@@H](CO)C(=O)N[C@@H](CO)C(=O)N[C@H](C(=O)N[C@@H](CC(N)=O)C(=O)N[C@H](C(=O)NCC(=O)N[C@@H](CO)C(=O)N[C@@H](CCC(=O)O)C(=O)N[C@H](C(=O)N[C@@H](Cc1ccc(O)cc1)C(N)=O)[C@@H](C)O)C(C)C)[C@@H](C)O
notes: also called compound 27

Each binder was assayed against T1, human amylin 3(a) receptor (human …) (assay: cell-based or functional assay).
With B1 the “Ratio hCT/hAmylin funct. (hCTR EC50 over hAmylin-R EC50)” value was 30.6 and the “hAmylin-R funct. EC50 (pM)” value was 296 pM.
B2 was tested, and the “Ratio hCT/hAmylin funct. (hCTR EC50 over hAmylin-R EC50)” value was 139 and the “hAmylin-R funct. EC50 (pM)” value was 37 pM.
With B3 the “Ratio hCT/hAmylin funct. (hCTR EC50 over hAmylin-R EC50)” value was 38.6 and the “hAmylin-R funct. EC50 (pM)” value was 242 pM.
B4 was tested, and the “Ratio hCT/hAmylin funct. (hCTR EC50 over hAmylin-R EC50)” value was 41.6 and the “hAmylin-R funct. EC50 (pM)” value was 405 pM.
B5 was tested, and the “Ratio hCT/hAmylin funct. (hCTR EC50 over hAmylin-R EC50)” value was 24.5 and the “hAmylin-R funct. EC50 (pM)” value was 161 pM.
For B6, the “Ratio hCT/hAmylin funct. (hCTR EC50 over hAmylin-R EC50)” value was 22.6 and the “hAmylin-R funct. EC50 (pM)” value was 133 pM.
